{"source": "paper PMC13078783", "about": "“Kinesin-1 conformational dynamics are controlled by a cargo-sensitive TPR switch” (eLife, 2026)", "key": {"KLC2 TPR domain": {"target": "T1, KLC2 TPR domain", "T1 construct": "kinesin light chain 2 (KLC2), TPR domain, residues A196-K480, in pET28His-Thrombin; source: E. coli BL21(DE3), purified (His-Trap, SEC)", "assay": "fluorescence polarisation; TAMRA-conjugated peptide at 150 nM, increasing KLC1/2 TPR protein (typically 0–25 μM); 25 mM HEPES pH 7.4, 5 mM β-mercaptoethanol, 150 mM NaCl; room temperature; one-site specific binding model", "settings": "both partners purified"}, "KLC1 TPR domain": {"target": "T2, KLC1 TPR domain", "T2 construct": "also called isolated TPR domains; KLC-1 TPR protein; source: E. coli BL21(DE3), purified (His-Trap, SEC)", "assay": "fluorescence polarisation; TAMRA-conjugated peptide at 150 nM, increasing KLC1/2 TPR protein (typically 0–25 μM); 25 mM HEPES pH 7.4, 5 mM β-mercaptoethanol, 150 mM NaCl; room temperature; one-site specific binding model", "settings": "both partners purified"}, "[1]": {"target": "the molecule itself", "assay": "AUC; sedimentation equilibrium, 20 °C, PBS, 100 μM total peptide, 44–60 krpm, single ideal species model"}}, "note": "No end group written: not given here."}
{"binder": "ENEALKDEVKELLQALEELAVNYDQLSQ-NH2 (also: TAMRA-conjugated, position not given here)", "note": "[Eng-TDS]", "values": [{"measurement": "Kd", "setting": "KLC2 TPR domain", "result": 2.7, "unit": "µM"}, {"measurement": "Kd", "setting": "KLC1 TPR domain", "result": "~25", "unit": "µM"}, {"measurement": "stoichiometry N", "setting": "[1]", "result": 2}]}
